Experimental data as given in patent publication US8802681B2, “Pharmaceutical compositions with attenuated release of phenolic opioids” (Signature Therapeutics, Inc., priority 2008, dated 2014).

Assays:
[1] = Oral administration of Compound 3 and Compound 101 to rats, hydromorphone in plasma; assay type: in vivo, rat; settings: Compound 3 20 mg/kg, Compound 101 10 mg/kg
Protocol: Saline solutions of Compound 3 (which can be prepared as described in Example 12) and Compound 101 (prepared as described in Example 14) were dosed as indicated in Table 8.

[2] = Oral administration of Compound 4 and Compound 101 to rats, hydromorphone in plasma; assay type: in vivo, rat; settings: Compound 4 20 mg/kg, Compound 101 10 mg/kg
Protocol: Saline solutions of Compound 4 (which can be prepared as described in Example 13) and Compound 101 (prepared as described in Example 14) were dosed as indicated in Table 9.

[3] = Oral administration of Compound 3 and SBTI to rats, hydromorphone in plasma; assay type: in vivo, rat; settings: Compound 3 20 mg/kg, SBTI 500 mg/kg
Description: Dosing, sampling and analysis procedures were as described in Example 4.

[4] = Oral administration of Compound 1 and SBTI to rats, hydromorphone in blood; assay type: in vivo, rat
Protocol: At specified time points, blood samples were drawn, quenched into methanol, centrifuged at 14,000 rpm @ 4° C., and stored at −80° C. until analysis by high performance liquid chromatography/mass spectrometry (HPLC/MS).

[5] = Oral administration of Compound 1 and SBTI in the presence of ovalbumin to rats, hydromorphone in plasma; assay type: in vivo, rat; settings: Compound 1 20 mg/kg
Protocol: In an effort to understand the role of SBTI, ovalbumin was used as a non-trypsin inhibitor protein control. Albumin from chicken egg white (ovalbumin) (Catalog No. A7641, Grade VII, lyophilized powder, Sigma-Aldrich) was dissolved in saline.
At specified time points, blood samples were drawn, harvested for plasma via centrifugation at 5,400 rpm at 4° C. for 5 min, and 100 microliters (μl) plasma transferred from each sample into a fresh tube containing 1 μl of formic acid. The tubes were vortexed for 5-10 seconds, immediately placed in dry ice and then stored until analysis by HPLC/MS.

[6] = Oral administration of Compound 4 and SBTI to rats, hydromorphone in plasma; assay type: in vivo, rat; settings: Compound 4 20 mg/kg, SBTI 500 mg/kg
Protocol: Dosing, sampling and analysis procedures were as described in Example 4, except that Compound 4 without inhibitor was administered to 7 rats.

[7] = Oral administration of Compound 2 and SBTI to rats, hydromorphone in plasma; assay type: in vivo, rat; settings: Compound 2 20 mg/kg, SBTI 500 mg/kg
Protocol: When SBTI was dosed, it was administered 5 min prior to Compound 4. At specified time points, blood samples were drawn, processed and analyzed as described in Example 2.

trypsin = target: T1, trypsin (Bos taurus, UniProt P00760); assay: Modified trypsin assay (in vitro IC50); assay type: biochemical; settings: trypsin inhibition
T1 sequence (P00760 24-246): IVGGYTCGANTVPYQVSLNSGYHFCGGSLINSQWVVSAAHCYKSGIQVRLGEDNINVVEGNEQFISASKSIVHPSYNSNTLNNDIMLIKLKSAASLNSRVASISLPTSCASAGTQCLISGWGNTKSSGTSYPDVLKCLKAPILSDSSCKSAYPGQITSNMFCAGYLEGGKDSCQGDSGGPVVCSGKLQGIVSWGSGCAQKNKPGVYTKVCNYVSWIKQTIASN

CCOC(=O)N1CCN(C(=O)[C@H](CCCNC(=N)N)NS(=O)(=O)c2ccc3ccccc3c2)CC1 [Compound 101, (S)-ethyl 4-(5-guanidino-2-(naphthalene-2-sulfonamido)pentanoyl)piperazine-1-carboxylate]
Effect of Compound 101 on Compound 3's release of hydromorphone [1]: attenuates Compound 3's ability to release hydromorphone, both with respect to suppressing Cmax and delaying Tmax | Effect of Compound 101 on Compound 4's release of hydromorphone [2]: attenuates Compound 4's ability to release hydromorphone, both with respect to suppressing Cmax and delaying Tmax

B1: SBTI: trypsin inhibitor from Glycine max (soybean), Catalog No. 93620, ~10,000 units per mg, Sigma-Aldrich (protein, UniProt P01070 25-205, looked up)
Trypsin inhibitor A: DFVLDNEGNPLENGGTYYILSDITAFGGIRAAPTGNERCPLTVVQSRNELDKGIGTIISSPYRIRFIAEGHPLSLKFDSFAVIMLCVGIPTEWSVVEDLPEGPAVKIGENKDAMDGWFRLERVSDDEFNNYKLVFCPQQAEDDKCGDIGISIDHDDGTRRLVVSKNKPLVVQFQKLDKESL
Effect of SBTI on Compound 3's release of hydromorphone [3]: attenuates Compound 3's ability to release hydromorphone, both with respect to suppressing Cmax and delaying Tmax | Effect of SBTI on Compound 1's release of hydromorphone ([4]; Compound 1 20 mg/kg, SBTI 10-1000 mg/kg): attenuates Compound 1's ability to release hydromorphone in a dose-dependent manner | Attenuation of hydromorphone release from Compound 1 ([4]; at higher SBTI concentrations): approximately 100% | Effect of SBTI on Compound 1's release of hydromorphone ([5]; SBTI 500 mg/kg in the presence of 500 mg/kg ovalbumin): suppresses Cmax and delays Tmax | Effect of SBTI on Compound 4's release of hydromorphone [6]: attenuates Compound 4's ability to release hydromorphone, at least with respect to delaying Tmax | Effect of SBTI on Compound 2's release of hydromorphone [7]: attenuates Compound 2's ability to release hydromorphone, both with respect to suppressing Cmax and delaying Tmax | IC50 (trypsin): 270 nM

B2: ovalbumin: Albumin from chicken egg white, Catalog No. A7641, Grade VII, Sigma-Aldrich; non-trypsin inhibitor protein control (protein, UniProt P01012 2-386, looked up)
Ovalbumin: GSIGAASMEFCFDVFKELKVHHANENIFYCPIAIMSALAMVYLGAKDSTRTQINKVVRFDKLPGFGDSIEAQCGTSVNVHSSLRDILNQITKPNDVYSFSLASRLYAEERYPILPEYLQCVKELYRGGLEPINFQTAADQARELINSWVESQTNGIIRNVLQPSSVDSQTAMVLVNAIVFKGLWEKAFKDEDTQAMPFRVTEQESKPVQMMYQIGLFRVASMASEKMKILELPFASGTMSMLVLLPDEVSGLEQLESIINFEKLTEWTSSNVMEERKIKVYLPRMKMEEKYNLTSVLMAMGITDVFSSSANLSGISSAESLKISQAVHAAHAEINEAGREVVGSAEAGVDAASVSEEFRADHPFLFCIKHIATNAVLFFGRCVSP
Effect of ovalbumin on Compound 1's release of hydromorphone ([5]; OVA 20-1000 mg/kg): does not significantly affect Compound 1's ability to release hydromorphone
